Paper PMC9445180

Biological target: HTRA1^PD + 7-mer ABP (purified covalent complex of HTRA1^PD and biotin-DPMFKLV-phosphonate) (human) (UniProt Q92743)
Assay: SPR; His6-tagged HTRA proteins (about 200 RU) captured with the His-capture kit on a CM5 chip, Fab15H6.v4 as analyte, single-cycle kinetics, three-fold dilutions from 1 nM or 1 μM; absence of binding verified with 3 μM Fab; Biacore S200, 25 °C, HBS-EP; 1:1 Langmuir model

Sequence of HTRA1^PD + 7-mer ABP (purified covalent complex of HTRA1^PD and biotin-DPMFKLV-phosphonate) (human) (Q92743 161-379, one chain of several): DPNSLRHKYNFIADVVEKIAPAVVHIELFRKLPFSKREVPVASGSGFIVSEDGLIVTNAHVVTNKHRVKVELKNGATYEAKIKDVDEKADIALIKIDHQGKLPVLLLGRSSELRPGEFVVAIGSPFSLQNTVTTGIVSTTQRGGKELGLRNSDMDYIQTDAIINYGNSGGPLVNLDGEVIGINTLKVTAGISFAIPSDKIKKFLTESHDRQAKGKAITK

- Kd: 0.21 nM
B1: Fab15H6.v4 (Fab, V domains shown)
VH: EVQLVQSGAEVKKPGASVKVSCKASGYKFTDSEMHWVRQAPGQGLEWIGGVDPETEGAAYNQKFKGRATITRDTSTSTAYLELSSLRSEDTAVYYCTRGYDYDYALDYWGQGTLVTVSS
VL: DIQMTQSPSSLSASVGDRVTITCRASSSVEFIHWYQQKPGKAPKPLISATSNLASGVPSRFSGSGSGTDFTLTISSLQPEDFATYYCQQWSSAPWTFGQGTKVEIK
